Assay results reported in publication PMC4215538, “A clathrin coat assembly role for the muniscin protein central linker revealed by TALEN-mediated gene editing” (eLife, 2014).

Biological target: T1, AP-2 α appendage (mouse, UniProt P17427 701-938)
T1 construct: AP-2 αC subunit appendage, mouse, residues 701–938; It was added soluble to glutathione-Sepharose pull-downs, so GST was probably removed; also called αC appendage (mouse residues 701–938); purified AP-2 α appendage; source: purified (from the GST-αC appendage construct described previously)
T1 sequence (P17427 701-938): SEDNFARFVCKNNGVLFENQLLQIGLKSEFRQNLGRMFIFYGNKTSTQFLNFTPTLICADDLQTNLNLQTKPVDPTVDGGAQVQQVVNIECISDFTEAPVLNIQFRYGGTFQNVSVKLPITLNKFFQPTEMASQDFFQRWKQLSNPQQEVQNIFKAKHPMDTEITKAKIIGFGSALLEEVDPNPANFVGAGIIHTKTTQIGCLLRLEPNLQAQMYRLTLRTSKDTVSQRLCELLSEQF
Experiment: pull-down; ~200 μg GST fusion on glutathione-Sepharose; rat brain cytosol supplemented with 5 μM or 25 μM purified AP-2 α appendage; recovery of the added α appendage in the pellets
Details: both partners purified

binding result: binds
B1: GST-EPS15 (595–740) (domain or fragment, UniProt P42566 595-740, looked up)
chain: SKEEDPFNVDSSSLTGPVADTNLDFFQSDPFVGSDPFKDDPFGKIDPFGGDPFKGSDPFASDCFFRQSTDPFATSSTDPFSAANNSSITSVETLKHNDPFAPGGTVVAASDSATDPFASVFGNESFGGGFADFSTLSKVNNEDPFR
notes: also called GST-EPS15 fusion; C-terminal region of EPS15; source: purified GST fusion (purification described in Umasankar et al., 2012)
